Our source for the stoichiometry N values is article doi:10.1101/2021.06.01.446691.

The experiment deals with VirB4-like TraB ATPase of the pKM101-encoded type IV secretion system (plasmid pKM101 (carried in E. coli)). Briefly: cryo-EM structure.

Usually stoichiometry N stands for the number of molecules, sites or subunits per partner or assembly. For the substance “VirB4-like TraB ATPase of the pKM101-encoded type IV secretion system (enzyme)”, the stoichiometry N is 12.
